This note sets out measurements from patent publication US20140287471A1, “VARIANT CBH I POLYPEPTIDES WITH REDUCED PRODUCT INHIBITION” (BP CORPORATION NORTN AMERICA INC., priority 2011, published 2014).

The experiment can be described thus: 4-MUL cellobiose tolerance/inhibition assay, dose-response IC50 (Example 2). The class given is biochemical. On the procedure: CBH I activity on was measured using the 4-MUL assay using gluconolactone to inhibit any BG activity. The fluorogenic 4-MUL substrate (SIGMA) was prepared at 100 mM concentration in DMSO. Assays were run in black 96-well-flat-bottomed plates (Costar) and 4-MU fluorescence was read on a BioTek H4 plate reader (ex/em 365/450 nm). Assay plates were filled with buffer (final concentrations of 100 mM MES, pH 6, 25 mM gluconolactone, with or without cellobiose; cellobiose concentrations are listed with appropriate data sets), to which enzyme mixture was added (10-30 μl, 5 μg/mL final) and then assays were initiated by addition of 4-MUL (0.5 mM final concentration in 100 μl total volume). Enzyme mixtures were either CBH I variants from harvested supernatants or standards. Standards included: a negative control, consisting of harvested supernatant from the CBH I knock-out strain; a positive control, consisting of wild-type CBH I from harvested supernatants; and, a commercial CBH I standard (E-CBHI from Megazymes). Activity standards were run by serial dilution of commercial CBH I from 40 to 0.02 μg/mL and 4-MU (SIGMA, prepared at 20 mM in DMSO) (in dilution increments of 2-fold; all dilutions were made using harvested supernatant from the knock-out control). Kinetic rates were monitored over the first 15 mins following 4-MUL addition; initial rates were calculated based on data in the linear range. After 1 hr, a final endpoint read was taken, both before and after reaction quenching (100 μL of 200 mM Sodium Carbonate, pH 10.0). Activity was calculated for kinetic and endpoint reads; background resulting from the CBH I knock-out supernatant remained negligible. 4MU standard curves and HPLC quantification values were used to calculate specific activity.
Tolerance/inhibition values represent activity ratios and/or percent activity remaining/percent activity decreased in the presence versus the absence of cellobiose. Tolerant variants show less inhibition in the presence of cellobiose as compared to wild type, where an activity ratio of 1 (with vs. without a given concentration of cellobiose) is equivalent to 0% inhibition by cellobiose, or 100% tolerance. The effect of cellobiose on CBH I variant performance was monitored by dose-response in the 4MUL assay. Dose-response curves were generated by assaying variant activity in the presence of 6-8 different cellobiose concentrations ranging up to 100 mM cellobiose. CBH I samples were diluted to 5 μg/mL final concentration or were used directly in the case of protein quantification levels below 5 μg/mL. Half maximal inhibitory concentration (IC50) values were determined by plotting 4MUL activity versus cellobiose concentration and fitting with a four parameter dose-response fitting algorithm, with zero activity (or 100% inhibition) constrained to background activity (as established by CBH I knockout values) and with automatic outlier elimination (on GraphPad Prism 5).
Harvested supernatants from active variant isolates were evaluated for cellobiose tolerance at 1 mM cellobiose in the 4-MUL activity assay. Table 8 lists the tolerance of variants at 1 mM. […] Additional cellobiose concentrations at 0.25, 5, 10, 50, and 100 mM were tested leading to full dose-response curves for which half maximal inhibitory concentration (IC50) values were generated (Table 8). The IC50 values support that the variant library has decreased product inhibition, or increased tolerance to cellobiose, when compared to the wild-type enzyme (WT IC50=0.03 mM; see first entry, Table 8).
In one example, the cellobiose tolerance of the library was explored in more detail by generating dose-response curves and determining half maximal inhibitory concentration (IC50) values, the point at which the enzyme is 50% inhibited.

Setting [1] is: Secondary screening, CBH I levels normalized to 5 μg/mL, cellobiose range 0.00085-100 mM, read-out: IC50.
The mark [2] stands for this setting: secondary screening, CBH I levels normalized to 5 μg/mL, cellobiose range 0.0001-100 mM, read-out: Average IC50.
The mark [3] stands for this setting: serine variants, unit not given in the legend, read-out: IC50 values (representative IC50 curves, FIG. 9).

Where two headings read alike, the source gives them in different places.

B1: 268N: CBH I variant with site 268 mutated to asparagine (protein, UniProt P62694 18-513, looked up, variant R268N)
Exoglucanase 1: QSACTLQSETHPPLTWQKCSSGGTCTQQTGSVVIDANWRWTHATNSSTNCYDGNTWSSTLCPDNETCAKNCCLDGAAYASTYGVTTSGNSLSIGFVTQSAQKNVGARLYLMASDTTYQEFTLLGNEFSFDVDVSQLPCGLNGALYFVSMDADGGVSKYPTNTAGAKYGTGYCDSQCPRDLKFINGQANVEGWEPSSNNANTGIGGHGSCCSEMDIWEANSISEALTPHPCTTVGQEICEGDGCGGTYSDNNYGGTCDPDGCDWNPYRLGNTSFYGPGSSFTLDTTKKLTVVTQFETSGAINRYYVQNGVTFQQPNAELGSYSGNELNDDYCTAEEAEFGGSSFSDKGGLTQFKKATSGGMVLVMSLWDDYYANMLWLDSTYPTNETSSTPGAVRGSCSTSSGVPAQVESQSPNAKVTFSNIKFGPIGSTGNPSGGNPPGGNRGTTTTRRPATTTGSSPGPTQSHYGQCGGIGYSGPTVCASGTTCQVLNPYYSQCL
Consider B1, for which the IC50 under setting [1] worked out at 482 µM; the IC50 (averaged IC50 values from Tables 8-11, read-out: measured IC50 of cellobiose (merged values)) was 490 µM; the IC50 under setting [2] amounted to 405 µM.

B2: 268A/411S: CBH I variant with site 268 mutated to alanine and site 411 to serine (protein, UniProt P62694 18-513, looked up, variant R268A R411S)
Exoglucanase 1: QSACTLQSETHPPLTWQKCSSGGTCTQQTGSVVIDANWRWTHATNSSTNCYDGNTWSSTLCPDNETCAKNCCLDGAAYASTYGVTTSGNSLSIGFVTQSAQKNVGARLYLMASDTTYQEFTLLGNEFSFDVDVSQLPCGLNGALYFVSMDADGGVSKYPTNTAGAKYGTGYCDSQCPRDLKFINGQANVEGWEPSSNNANTGIGGHGSCCSEMDIWEANSISEALTPHPCTTVGQEICEGDGCGGTYSDNAYGGTCDPDGCDWNPYRLGNTSFYGPGSSFTLDTTKKLTVVTQFETSGAINRYYVQNGVTFQQPNAELGSYSGNELNDDYCTAEEAEFGGSSFSDKGGLTQFKKATSGGMVLVMSLWDDYYANMLWLDSTYPTNETSSTPGAVSGSCSTSSGVPAQVESQSPNAKVTFSNIKFGPIGSTGNPSGGNPPGGNRGTTTTRRPATTTGSSPGPTQSHYGQCGGIGYSGPTVCASGTTCQVLNPYYSQCL
B2: under setting [3], the IC50 stood at 6800 µM.

B3: 411 S: CBH I variant with site 411 mutated to serine (protein, UniProt P62694 18-513, looked up, variant R411S)
Exoglucanase 1: QSACTLQSETHPPLTWQKCSSGGTCTQQTGSVVIDANWRWTHATNSSTNCYDGNTWSSTLCPDNETCAKNCCLDGAAYASTYGVTTSGNSLSIGFVTQSAQKNVGARLYLMASDTTYQEFTLLGNEFSFDVDVSQLPCGLNGALYFVSMDADGGVSKYPTNTAGAKYGTGYCDSQCPRDLKFINGQANVEGWEPSSNNANTGIGGHGSCCSEMDIWEANSISEALTPHPCTTVGQEICEGDGCGGTYSDNRYGGTCDPDGCDWNPYRLGNTSFYGPGSSFTLDTTKKLTVVTQFETSGAINRYYVQNGVTFQQPNAELGSYSGNELNDDYCTAEEAEFGGSSFSDKGGLTQFKKATSGGMVLVMSLWDDYYANMLWLDSTYPTNETSSTPGAVSGSCSTSSGVPAQVESQSPNAKVTFSNIKFGPIGSTGNPSGGNPPGGNRGTTTTRRPATTTGSSPGPTQSHYGQCGGIGYSGPTVCASGTTCQVLNPYYSQCL
As for B3, the IC50 under setting [1] was found to be 895 µM, the IC50 under setting [2] amounted to 762 µM and the IC50 under setting [3] amounted to 890 µM.

B4: R268I (protein, UniProt P62694 18-513, looked up, variant R268I)
Exoglucanase 1: QSACTLQSETHPPLTWQKCSSGGTCTQQTGSVVIDANWRWTHATNSSTNCYDGNTWSSTLCPDNETCAKNCCLDGAAYASTYGVTTSGNSLSIGFVTQSAQKNVGARLYLMASDTTYQEFTLLGNEFSFDVDVSQLPCGLNGALYFVSMDADGGVSKYPTNTAGAKYGTGYCDSQCPRDLKFINGQANVEGWEPSSNNANTGIGGHGSCCSEMDIWEANSISEALTPHPCTTVGQEICEGDGCGGTYSDNIYGGTCDPDGCDWNPYRLGNTSFYGPGSSFTLDTTKKLTVVTQFETSGAINRYYVQNGVTFQQPNAELGSYSGNELNDDYCTAEEAEFGGSSFSDKGGLTQFKKATSGGMVLVMSLWDDYYANMLWLDSTYPTNETSSTPGAVRGSCSTSSGVPAQVESQSPNAKVTFSNIKFGPIGSTGNPSGGNPPGGNRGTTTTRRPATTTGSSPGPTQSHYGQCGGIGYSGPTVCASGTTCQVLNPYYSQCL
Turning to B4, the IC50 turned out to be 484 µM under setting [1] and 320 µM under setting [2].

B5: 268S: CBH I variant with site 268 mutated to serine (protein, UniProt P62694 18-513, looked up, variant R268S)
Exoglucanase 1: QSACTLQSETHPPLTWQKCSSGGTCTQQTGSVVIDANWRWTHATNSSTNCYDGNTWSSTLCPDNETCAKNCCLDGAAYASTYGVTTSGNSLSIGFVTQSAQKNVGARLYLMASDTTYQEFTLLGNEFSFDVDVSQLPCGLNGALYFVSMDADGGVSKYPTNTAGAKYGTGYCDSQCPRDLKFINGQANVEGWEPSSNNANTGIGGHGSCCSEMDIWEANSISEALTPHPCTTVGQEICEGDGCGGTYSDNSYGGTCDPDGCDWNPYRLGNTSFYGPGSSFTLDTTKKLTVVTQFETSGAINRYYVQNGVTFQQPNAELGSYSGNELNDDYCTAEEAEFGGSSFSDKGGLTQFKKATSGGMVLVMSLWDDYYANMLWLDSTYPTNETSSTPGAVRGSCSTSSGVPAQVESQSPNAKVTFSNIKFGPIGSTGNPSGGNPPGGNRGTTTTRRPATTTGSSPGPTQSHYGQCGGIGYSGPTVCASGTTCQVLNPYYSQCL
Take B5: the IC50 was found to be 452 µM under setting [1], 406 µM under setting [2] and 450 µM under setting [3].

B6: R268Y (protein, UniProt P62694 18-513, looked up, variant R268Y)
Exoglucanase 1: QSACTLQSETHPPLTWQKCSSGGTCTQQTGSVVIDANWRWTHATNSSTNCYDGNTWSSTLCPDNETCAKNCCLDGAAYASTYGVTTSGNSLSIGFVTQSAQKNVGARLYLMASDTTYQEFTLLGNEFSFDVDVSQLPCGLNGALYFVSMDADGGVSKYPTNTAGAKYGTGYCDSQCPRDLKFINGQANVEGWEPSSNNANTGIGGHGSCCSEMDIWEANSISEALTPHPCTTVGQEICEGDGCGGTYSDNYYGGTCDPDGCDWNPYRLGNTSFYGPGSSFTLDTTKKLTVVTQFETSGAINRYYVQNGVTFQQPNAELGSYSGNELNDDYCTAEEAEFGGSSFSDKGGLTQFKKATSGGMVLVMSLWDDYYANMLWLDSTYPTNETSSTPGAVRGSCSTSSGVPAQVESQSPNAKVTFSNIKFGPIGSTGNPSGGNPPGGNRGTTTTRRPATTTGSSPGPTQSHYGQCGGIGYSGPTVCASGTTCQVLNPYYSQCL
B6: the IC50 was found to be 434 µM under setting [1] and 344 µM under setting [2].

B7: R268D (protein, UniProt P62694 18-513, looked up, variant R268D)
Exoglucanase 1: QSACTLQSETHPPLTWQKCSSGGTCTQQTGSVVIDANWRWTHATNSSTNCYDGNTWSSTLCPDNETCAKNCCLDGAAYASTYGVTTSGNSLSIGFVTQSAQKNVGARLYLMASDTTYQEFTLLGNEFSFDVDVSQLPCGLNGALYFVSMDADGGVSKYPTNTAGAKYGTGYCDSQCPRDLKFINGQANVEGWEPSSNNANTGIGGHGSCCSEMDIWEANSISEALTPHPCTTVGQEICEGDGCGGTYSDNDYGGTCDPDGCDWNPYRLGNTSFYGPGSSFTLDTTKKLTVVTQFETSGAINRYYVQNGVTFQQPNAELGSYSGNELNDDYCTAEEAEFGGSSFSDKGGLTQFKKATSGGMVLVMSLWDDYYANMLWLDSTYPTNETSSTPGAVRGSCSTSSGVPAQVESQSPNAKVTFSNIKFGPIGSTGNPSGGNPPGGNRGTTTTRRPATTTGSSPGPTQSHYGQCGGIGYSGPTVCASGTTCQVLNPYYSQCL
For the molecule B7, the IC50 is, setting by setting: under setting [1], 467 µM; under setting [2], 431 µM.
